Results published in patent US11643670B2, “Methods of enhancing chromosomal homologous recombination” (Massachusetts Institute of Technology, priority 2018, dated 2023).

System: maternal Chd2 locus
Experiment: Donor-free interchromosomal homologous recombination (ICHR) in IVF-derived Chd2^R1684H/+ embryos
Format: cell-based, mouse
Description: tracrRNA, crRNAs, and ssODNs were synthesized by Integrated DNA Technologies (TABLE 1). All injection mixtures were prepared in a final volume of 50 μL according to the following methodology: Using RNase-free water, reagents, and consumables, crRNA (final concentration 0.61 μM), tracrRNA (final concentration 0.61 μM), and ultrapure Tris-HCl, pH 7.39 (final concentration 10 mM, ThermoFisher) were mixed and incubated at 95° C. for 5 minutes. The mixtures were cooled to room temperature for 10 minutes on the benchtop, and then, EnGen Cas9-NLS S. pyogenes (New England Biolabs) was added to a final concentration of 30 ng/μL. The mixtures were incubated at 37° C. for 15 minutes before adding any remaining components: ssODN (final concentration 3 ng/μL or 30 ng/μL), RAD51 (Creative Biomart, final concentration 10 ng/μL). Injection mixtures were stored on ice and briefly heated to 37° C. prior to injection. For experiments utilizing RS-1, embryos were cultured in KSOM-AA (EMD Millipore MR-121-D) with […] RS-1 (Sigma) dissolved in DMSO or DMSO (Sigma, 1:1000) for 24 hours, washed, and cultured in EmbryoMax FHM HEPES Buffered Medium (Sigma) until collection for genotyping.
For experiments using wildtype recombinant proteins, the following proteins were used: RAD51 (Creative Biomart RAD51-134H), USP1/WDR48 (Creative Biomart USP1&WDR48-1067H), BCCIP (Origene TP303061), XRCC1 (TP304952), XRCC4 (Origene TP312684), DMC1 (Origene TP318311). For experiments using mutant RAD51, custom RAD51 preparations were produced by Creative Biomart according to their standard protocol for producing the wildtype RAD51 used in all other experiments. Mutant DNA sequences used for cloning are described in TABLE 2. All RAD51 mutants were modeled in human RAD51 transcript variant 4 (NCBI accession NM_001164269), as this is the transcript variant of the wildtype RAD51-134H protein used in all other experiments.
In vitro fertilization was performed using FERTIUP® Mouse Preincubation Medium and CARD MEDIA (Kyudo Company) according to the manufacturer's protocol. Non-virgin Chd2^R1684H/R1684H males that were >8 weeks old were used as sperm donors. Following IVF, embryos were cultured for 8 hours and then injected using the PNI protocol described below.
For all experiments except those described in FIG. 6, the male pronucleus was injected. Injections performed for the CPI portion of FIG. 6 were targeted to the cytoplasm. All microinjections were performed using a Narishige Micromanipulator, Nikon Eclipse TE2000-S microscope, and Eppendorf 5242 microinjector. Individual zygotes were injected with 1-2 pL of injection mixture using an “automatic” injection mode set according to needle size and adjusted for clear increase in pronuclear volume. Following injections, cells were cultured in KSOM-AA until collection for genotyping. For experiments giving rise to F0 animals, embryos were surgically implanted into pseudopregnant CD-1 females (Charles River Laboratories, Strain Code 022) 24-hours post-injection and allowed to develop normally until natural birth.
Embryos were collected at morula-to-blastocyst stage in 4 μL nuclease-free water. After collection, 4 μL of 2× embryo digestion buffer was added to each sample (final concentrations: 125 μg/mL proteinase K, 100 mM Tris-HCl pH 8.0, 100 mM KCl, 0.02% gelatin, 0.45% Tween-20, 60 μg/mL yeast tRNA) and embryos were lysed for 1 hour at 56° C. Proteinase K was inactivated via incubation at 95° C. for 10 minutes and DNA was stored at −20° C. until use.
Chd2^R1684H genotyping was performed via a two-step, nested approach. Except for experiments described in FIGS. 3A-3G, all 8 μL of embryo DNA were used as input for the initial, long round of PCR. Genotyping of mouse pups and adult animals was performed using 2 μL of purified tail DNA. For all embryo genotyping, reactions mixtures were set up in a UV-sterilized laminar flow hood using sterile reagents and filter tips to avoid contamination. […]

[1] = compared to embryos injected with wildtype RAD51

B1: G151D: recombinant RAD51 gain-of-function mutant with increased strand exchange activity, SEQ ID NO: 8 (protein)
chain: MAMQMQLEANADTSVEEESFGPQPISRLEQCGINANDVKKLEEAGFHTVEAVAYAPKKELINIKGISEAKADKILTESRSVARLECNSVILVYCTLRLSGSSDSPASASRVVGTTGGIETGSITEMFGEFRTGKTQICHTLAVTCQLPIDRDGGEGKAMYIDTEGTFRPERLLAVAERYGLSGSDVLDNVAYARAFNTDHQTQLLYQASAMMVESRYALLIVDSATALYRTDYSGRGELSARQMHLARFLRMLLRLADEFGVAVVITNQVVAQVDGAAMFAADPKKPIGGNIIAHASTTRLYLRKGRGETRICKIYDSPCLPEAEAMFAINADGVGDAKD
B1 was tested, and the “efficiency of ICHR stimulation” value was ~100%, the “indel-to-ICHR ratio (level)” value was “near zero” and the indel events (27 injected zygotes) was “not a single indel event was identified”. The apparent editing efficiency (blastocysts from Cas9/crRNA/tracrRNA-injected embryos) was 22%, the “ICHR rate compared with baseline (Cas9-only embryos)” value (co-injected with Cas9/crRNA/tracrRNA, no donor) was “ICHR was observed in all edited cells” and the indel-to-ICHR ratio (compared to control embryos) was “drastic decrease”. For the same molecule, the overall indel rate (compared to control embryos) was “drastic decrease”, the indel-to-ICHR ratio [1] was “significant decreases” and the overall indel rate [1] was “significant decreases”.
